This is an account of results in IntAct's records for PubMed 15328537.

B1: Emerin (Homo sapiens), P50402 (parent)
chain: MDNYADLSDTELTTLLRRYNIPHGPVVGSTRRLYEKKIFEYETQRRRLSPPSSSAASSYSFSDLNSTRGDADMYDLPKKEDALLYQSKGYNDDYYEESYFTTRTYGEPESAGPSRAVRQSVTSFPDADAFHHQVHDDDLLSSSEEECKDRERPMYGRDSAYQSITHYRPVSASRSSLDLSYYPTSSSTSFMSSSSSSSSWLTRRAIRPENRAPGAGLGQDRQVPLWGQLLLFLVFVIVLFFIYHFMQAEEGNPF

The variants in this experiment derive from B1. The settings on record: with acts_rabit ACTA1, P68135.
As to MDNYADLSDTELTTLLRRYNIPHGPVVGSTRRLYEKKIFEYETQRRRLSPPSSSAASSYSFSDLNSTRGDADMYDLPKKEDALLYQSKGYNDDYYEESYFTTRTYGEPESAGPSRAVRQSVTSFPDADAFHHHVHDDDLLSSSEEECKDRERPMYGRDSAYQSITHYRPVSASRSSLDLSYYPTSSSTSFMSSSSSSSSWLTRRAIRPENRAPGAGLGQDRQVPLWGQLLLFLVFVIVLFFIYHFMQAEEGNPF [Q133H], the “effect of a mutation on the interaction” value was “disrupting interaction”.
